{
  "source": "patent US7951385B2",
  "about": "“Probiotic strain and antimicrobial peptide derived therefrom” (Cipla Medpro Research and Development (Pty) Ltd., priority 2006, dated 2011)",
  "key": {"virulence factors": {"system": "virulence factors", "assay": "Virulence factors assayed (in vitro tests and/or PCR screening)", "parameters": "species or system Enterococcus mundtii", "excerpt": "The presence of virulence factors, viz. vancomycin resistance (VanA/VanB/VanC1/VanC2/VanC3), production of gelatinase (Gel), aggregation substance (AS), adhesin of collagen from enterococci (Ace), enterococcus surface protein (Esp), haemolysin/bacteriocin (Cyl) and non-cytolysin beta hemolysin genes were studied by in vitro tests and/or PCR screening. DNA was extracted from E. mundtii ST4 according to standard methods. The primers designed for amplification of the latter genes were as described."}, "Lactobacillus casei LHS": {"system": "Lactobacillus casei LHS", "assay": "Effect of enzymes, temperature, pH and detergents on antimicrobial activity of peptide ST4SA", "format": "physicochemical", "parameters": "key: − = no activity; + = activity zones of at least 5 mm in diameter", "experimental": "Antimicrobial activity was expressed as arbitrary units (AU) per ml cell-free supernatant. One AU is defined as the reciprocal of the highest dilution showing a clear zone of growth inhibition and is calculated as follows:\na^b×100, where “a” represents the dilution factor and “b” the last dilution that produces an inhibition zone of at least 2 mm in diameter. Activity is expressed per ml by multiplication with 100. Lactobacillus casei LHS was used as indicator strain.\nThe cells were harvested (8 000×g, 4° C., 15 min) and the cell-free supernatants adjusted to pH 6.0 with 6M NaOH. One ml of each supernatant was treated with catalase (Boehringer Mannheim) at 0.1 mg/ml (final concentration), Proteinase K (Roche, Indianapolis, Ind., USA), pronase, papain, pepsin and trypsin (Boehringer Mannheim GmbH, Germany), at 1 mg/ml and 0.1 mg/ml (final concentration), respectively. After incubation the enzymes were heat-inactivated (3 min at 100° C.) and tested for antimicrobial activity, as described before.\nAliquots of peptide ST4SA were exposed to heat treatments of 30° C., 60° C. and 100° C. for 10, 30 and 90 min, respectively, and 121° C. for 20 min (Table 3). The samples were then tested for antimicrobial activity, as described before.\nIn a separate experiment, samples of peptide ST4SA were adjusted to pH values ranging from 2-12, incubated at 37° C. for 30 min, neutralised to pH 7, and then tested for antimicrobial activity (Table 3)."}, "[1]": {"system": "pathogens (Streptococcus pneumoniae, Klebsiella pneumoniae, middle ear isolates)", "assay": "Cell lysis / growth inhibition of pathogens in BHI broth", "format": "cell-based", "conditions": "peptide added at mid-exponential phase, BHI broth (FIGS. 15 to 23)", "experimental": "A 0.2% (v/v) inoculum of an overnight pathogen was inoculated into BHI broth. Peptide ST4SA was added to each pathogen at mid-exponential phase."}, "[2]": {"system": "tumour necrosis factor (TNF), interferon γ (IFN)", "assay": "Immune modulation (cytokine RNA hybridization, ileum and colon)", "format": "in vivo, rat", "experimental": "Total RNA was extracted from the frozen ileum and colon samples using Trizol reagent. The concentration of RNA was determined by measuring the absorbance at 260 nm using a Nanodrop spectrophotometer, after DNase treatment had been completed. Each RNA sample was diluted to a concentration of 42 ng/μl. A total of 5 μg of each sample was transferred in triplicate onto a nylon membrane using a slot blot apparatus. The membrane was then probed with either a tumour necrosis factor (TNF), interferon γ (IFN) or β-actin DNA probe amplified from rat genomic DNA and labeled with DIG. The membrane was exposed to X-ray film overnight and developed."}, "Staphylococcus aureus": {"system": "Staphylococcus aureus", "assay": "Extracellular DNA after treatment of pathogens with peptide ST4SA", "format": "cell-based", "conditions": "Staphylococcus aureus 36", "excerpt": "(§1) Further evidence of cell membrane damage and leakage of cellular constituents was obtained by testing for extracellular DNA and extracellular β-galactosidase activity."}, "Klebsiella pneumoniae": {"system": "Klebsiella pneumoniae", "assay": "Extracellular DNA after treatment of pathogens with peptide ST4SA", "format": "cell-based", "conditions": "Klebsiella pneumoniae 30", "excerpt": "as §1"}, "[3]": {"system": "Middle ear isolates (unknown)", "assay": "Extracellular DNA after treatment of pathogens with peptide ST4SA", "format": "cell-based", "excerpt": "as §1"}, "Streptococcus pyogenes": {"system": "Streptococcus pyogenes", "assay": "Extracellular DNA after treatment of pathogens with peptide ST4SA", "format": "cell-based", "conditions": "Streptococcus pyogenes 20", "excerpt": "as §1"}, "Streptococcus pneumoniae": {"system": "Streptococcus pneumoniae", "assay": "Extracellular DNA after treatment of pathogens with peptide ST4SA", "format": "cell-based", "excerpt": "as §1"}, "Pseudomonas auringinosa": {"system": "Pseudomonas auringinosa", "assay": "Extracellular DNA after treatment of pathogens with peptide ST4SA", "format": "cell-based", "conditions": "Pseudomonas auringinosa E", "excerpt": "as §1"}, "Enterococcus spp. HKLHS": {"system": "Enterococcus spp. HKLHS", "assay": "Extracellular DNA after treatment of pathogens with peptide ST4SA", "format": "cell-based", "conditions": "Control organism Enterococcus spp. HKLHS", "excerpt": "as §1"}, "[4]": {"system": "pathogenic bacteria (Listeria, Bacillus and Staphylococcus)", "assay": "Challenge study with red meat as model, PE-bound peptide", "conditions": "surface (PE)-bound peptide", "experimental": "Peptide ST4SA adhered strongly, and it would seem irreversibly, to the PE film. Release of peptide ST4SA from the surface of PE was only possible after 1 h with a current of 30 mA. […] The encapsulation of the antimicrobial peptide in the polymer leads to a slow release of the antimicrobial peptide and an extended period of treatment of a microbial infection."}},
  "data": [
    {"substance": "Peptide ST4SA: broad-spectrum antibacterial peptide (bacteriocin) produced by Enterococcus mundtii strain ST4SA, SEQ. ID. NO. 12 (MSQVVGGKYYGNGVSCNKKGCSVDWGKAIGIIGNNSAANLATGGAAGWKS; ENTEROCOCCUS MUNDTII ST4SA)", "values": [
      {"measurement": "Virulence factor AS (Aggregation substance)", "setting": "virulence factors", "value": "−"},
      {"measurement": "Virulence factor Ace (Adhesin to collagen from E. faecalis)", "setting": "virulence factors", "value": "−"},
      {"measurement": "Virulence factor Cyl (Cytolysin, β-hemolysin activity)", "setting": "virulence factors", "value": "+"},
      {"measurement": "Virulence factor Efa-Afm (E. faecium endocarditis antigen)", "setting": "virulence factors", "value": "−"},
      {"measurement": "Virulence factor Efa-Afs (E. faecalis endocarditis antigen)", "setting": "virulence factors", "value": "−"},
      {"measurement": "Virulence factor Esp (Enterococcus surface protein)", "setting": "virulence factors", "value": "−"},
      {"measurement": "Virulence factor Gel (Gelatinase production)", "setting": "virulence factors", "value": "−"},
      {"measurement": "Virulence factor Non-cyt (non-cytolysin beta hemolysin III)", "setting": "virulence factors", "value": "+"},
      {"measurement": "Virulence factor Van A (Vancomycin resistance)", "setting": "virulence factors", "value": "−"},
      {"measurement": "Virulence factor Van B (Vancomycin resistance)", "setting": "virulence factors", "value": "−"},
      {"measurement": "Virulence factor Van C1/2/3", "setting": "virulence factors", "value": "−"},
      {"measurement": "Antimicrobial activity after treatment", "setting": "Lactobacillus casei LHS; Detergents (1%): SDS", "value": "+ (+ = activity zones of at least 5 mm in diameter)"},
      {"measurement": "Antimicrobial activity after treatment", "setting": "Lactobacillus casei LHS; Detergents (1%): Triton X-100", "value": "+ (+ = activity zones of at least 5 mm in diameter)"},
      {"measurement": "Antimicrobial activity after treatment", "setting": "Lactobacillus casei LHS; Detergents (1%): Triton X-114", "value": "−"},
      {"measurement": "Antimicrobial activity after treatment", "setting": "Lactobacillus casei LHS; Detergents (1%): Tween 20, Tween 80", "value": "+ (+ = activity zones of at least 5 mm in diameter)"},
      {"measurement": "Antimicrobial activity after treatment", "setting": "Lactobacillus casei LHS; Detergents (1%): urea", "value": "+ (+ = activity zones of at least 5 mm in diameter)"},
      {"measurement": "Antimicrobial activity after treatment", "setting": "Lactobacillus casei LHS; EDTA: 0.1 mM, 1.0 mM, 2.0 mM", "value": "+ (+ = activity zones of at least 5 mm in diameter)"},
      {"measurement": "Antimicrobial activity after treatment", "setting": "Lactobacillus casei LHS; Enzymes: Proteinase K", "value": "−"},
      {"measurement": "Antimicrobial activity after treatment", "setting": "Lactobacillus casei LHS; Enzymes: pepsin", "value": "−"},
      {"measurement": "Antimicrobial activity after treatment", "setting": "Lactobacillus casei LHS; Enzymes: pronase", "value": "−"},
      {"measurement": "Antimicrobial activity after treatment", "setting": "Lactobacillus casei LHS; Enzymes: α-amylase", "value": "+ (+ = activity zones of at least 5 mm in diameter)"},
      {"measurement": "Antimicrobial activity after treatment", "setting": "Lactobacillus casei LHS; Heat: 30, 60, 100° C. for 10 min", "value": "+ (+ = activity zones of at least 5 mm in diameter)"},
      {"measurement": "Antimicrobial activity after treatment", "setting": "Lactobacillus casei LHS; Heat: 30, 60, 100° C. for 30 min", "value": "+ (+ = activity zones of at least 5 mm in diameter)"},
      {"measurement": "Antimicrobial activity after treatment", "setting": "Lactobacillus casei LHS; Heat: 30, 60, 100° C. for 90 min", "value": "+ (+ = activity zones of at least 5 mm in diameter)"},
      {"measurement": "Antimicrobial activity after treatment", "setting": "Lactobacillus casei LHS; Heat: 121° C. for 20 min", "value": "−"},
      {"measurement": "Antimicrobial activity after treatment", "setting": "Lactobacillus casei LHS; pH 2.0-12.0, 37° C. for 30 min, neutralised to pH 7", "value": "+ (+ = activity zones of at least 5 mm in diameter)"},
      {"measurement": "Antimicrobial activity after treatment", "setting": "Lactobacillus casei LHS; proteolytic enzyme papain", "value": "inactivated"},
      {"measurement": "Antimicrobial activity after treatment", "setting": "Lactobacillus casei LHS; proteolytic enzyme trypsin", "value": "inactivated"},
      {"measurement": "Mode of action on pathogens", "setting": "[1]", "value": "acted in a bactericidal manner against most pathogens"},
      {"measurement": "Cytokine (TNF or IFN) expression", "setting": "[2]", "value": "did not indicate any cytokine (TNF or IFN) expression"},
      {"measurement": "DNA-leakage (O.D. readings at 260 nm)", "setting": "Staphylococcus aureus", "value": 0.892},
      {"measurement": "DNA-leakage (O.D. readings at 260 nm)", "setting": "Klebsiella pneumoniae", "value": 1.01},
      {"measurement": "DNA-leakage (O.D. readings at 260 nm)", "setting": "[3]; Middle ear isolate 40", "value": 0.801},
      {"measurement": "DNA-leakage (O.D. readings at 260 nm)", "setting": "[3]; Middle ear isolate BW", "value": 1.186},
      {"measurement": "DNA-leakage (O.D. readings at 260 nm)", "setting": "[3]; Middle ear isolate DW", "value": 1.153},
      {"measurement": "DNA-leakage (O.D. readings at 260 nm)", "setting": "[3]; Middle ear isolate F", "value": 1.428},
      {"measurement": "DNA-leakage (O.D. readings at 260 nm)", "setting": "[3]; Middle ear isolate GW", "value": 0.751},
      {"measurement": "DNA-leakage (O.D. readings at 260 nm)", "setting": "[3]; Middle ear isolate HW", "value": 1.559},
      {"measurement": "DNA-leakage (O.D. readings at 260 nm)", "setting": "[3]; Middle ear isolate K", "value": 0.455},
      {"measurement": "DNA-leakage (O.D. readings at 260 nm)", "setting": "[3]; Middle ear isolate L", "value": 0.592},
      {"measurement": "DNA-leakage (O.D. readings at 260 nm)", "setting": "[3]; Middle ear isolate M", "value": 0.326},
      {"measurement": "DNA-leakage (O.D. readings at 260 nm)", "setting": "Streptococcus pyogenes", "value": 0.930},
      {"measurement": "DNA-leakage (O.D. readings at 260 nm)", "setting": "Streptococcus pneumoniae; Streptococcus pneumoniae 27", "value": 1.670},
      {"measurement": "DNA-leakage (O.D. readings at 260 nm)", "setting": "Streptococcus pneumoniae; Streptococcus pneumoniae 29", "value": 1.182},
      {"measurement": "DNA-leakage (O.D. readings at 260 nm)", "setting": "Streptococcus pneumoniae; Streptococcus pneumoniae D", "value": 1.160},
      {"measurement": "DNA-leakage (O.D. readings at 260 nm)", "setting": "Pseudomonas auringinosa", "value": 0.187},
      {"measurement": "DNA-leakage (O.D. readings at 260 nm)", "setting": "Enterococcus spp. HKLHS", "value": 1.395},
      {"measurement": "Growth of pathogenic bacteria on red meat", "setting": "[4]", "value": "prevented the growth of pathogenic bacteria"}
    ]}
  ]
}
